Experimental data taken from the nanobody polyreactivity screen of Harvey et al. (2022).

assay: yeast display, Sf9 membrane polyspecificity reagent, FACS + sequencing; frameworks hold sequencing errors
Outline: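 Galactose induction of a Saccharomyces cerevisiae BJ5465 synthetic nanobody display library ran 36–48 hours. The cells were then stained for 1 hour at 4 °C with 10% biotinylated, detergent-solubilized Sf9 membrane reagent, pulled down on streptavidin microbeads and FACS-sorted into low and high (top ~1%) gates on expression and reagent-binding fluorescence. Labels for polyreactivity follow the gate of origin.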

| Sequence | polyreactivity (PSR sort gate) |
| --- | --- |
| QVQLVESGGGLVQAGGSLRLSCAASGRTIYWNAMVWSRQAPGKERELVAAISNGGTTTYYADSVKGRFTISRDNAKNTVYLQMNSLKPEDTAVYYCAGDIRYFDYDYWGQGTQLTVSS | high polyreactivity |
| QVQLVESGGGLVQAGGSLRLSCAASGRTIYYNAIGRYIQAPVKEREFVATITCSGGSTYADSVKGRFTISRDNAKNTVYLQMNSLKPEDTAVYYCNADFSYTSEDQRALFTNVYYWGQGTQVTVSS | low polyreactivity |
| QVQLVESGGGLVQAGGSLRLSCAASGRTLARNAKGWYRQAPGKERELVASINGRTTRTYYADSVKGRFTISRDNAKNTVYLQMNSLKPEDTAVYYCAADPPGYVYGKRYYWGQGTQVTVSS | high polyreactivity |
| QVQLVESGGGLVQAGGSLRLSCAASGRTLASNAMGWYRQAPGKERELVAAINRGGSTYYADSVKGRFTISRDNAKNTVYLQMNSLKPEETAVYYCAVDRYRYPFDYWGQGTQVTVSS | low polyreactivity |
| QVQLVESGGGLVQAGGSLRLSCAASGRTLCVNAMGWYRQAPGKERELVAAISTRGTTTNYADSVKGRFTISRDIAKNTVYLQMNSLKPEDSAVYYCATRTYRTYPRYDYWGQGTQVTVSS | low polyreactivity |
| QVQLVESGGGLVQAGGSLRLSCAASGRTLDIYTMGWYRQAPGKERELVAAISWSGGSTYYADSVKGRFTISRDNAKNTVYLQMNSLKPEDTAVYYCNRVPISYAGQLEHSLYDFWGQGTQVTVSS | low polyreactivity |
| QVQLVESGGGLVQAGGSLRLSCAASGRTLDVYAMGWYRQAPGKERELVADINWSGGRTYYADSVKGRFTISRDNAKNTVYLQMNSLIPEDTAVFYCAADLSWRQYYREYDYWGQGTQVTVSS | high polyreactivity |
| QVQLVESGGGLVQAGGSLRLSCAASGRTLFGYAMGWYRQAPGKERELVAAITYGATSTYADSVKGRFTISRDNAKNTVYLQMNSLKPEDTAVYYCNAYTPTDGFDYWGQGTQVTVSS | low polyreactivity |
| QVQLVESGGGLVQAGGSLRLSCAASGRTLFRYAMGWYRQAPGKERELVAAISRSGGTTYYADSVKGRFTISRDNAKNTVYLQMNSLKPEDTAVYYCAARFVLRRDYGYWGQGTQVTVSS | high polyreactivity |
| QVQLVESGGGLVQAGGSLRLSCAASGRTLGDYDMGSYRQAPGKERELVAAINWSGGDTYYADSVKGRFTISRDNANNTVYLQMNSLKPEDSAVYYCNADYVYTRYDYWGQGTQVTVSS | high polyreactivity |
| QVQLVESGGGLVQAGGSLRLSCAASGRTLGGYAMGWYRQAPGKERELVASITSTSSTYADSVKGRFTISRDNAKNTVYLQMNSLKPEDTAVYYCAADYFLTSYGWRIHYTYYYWGQGTQVTVSS | low polyreactivity |
| QVQLVESGGGLVQAGGSLRLSCAASGRTLGGYAMGWYRQAPGKERELVAVITWNGGSTYADSVKGRFTISRDNAKNTVYLQMNSLKPEDTAVYYCAADRFNKPYYYWGQGTQVTVSS | high polyreactivity |
| QVQLVESGGGLVQAGGSLRLSCAASGRTLGKYAMGWYRQAPGKERELVAAIRWTGGNTYYADSVKGRFTISRDNAKNTVYLQMNSLKPEDPAGYYCNAVSFGRARHGGPVYGYDYWGQGTQVTVSS | high polyreactivity |
| QVQLVESGGGLVQAGGSLRLSCAASGRTLGRNAMGWYRQAPGKERELVASISSGGSTNYADSVKGRFTISRDNAKNTVYLQMNSLKPEDTAVYYCAAGYFRDYWGQGTQVTVSS | high polyreactivity |
| QVQLVESGGGLVQAGGSLRLSCAASGRTLGTYAMGWYRQAPGKERELVAAISVSSGSTYYADSVKGRFTISRDTAKNTVYLQMNSLKPEDTAVYYCAALPVYHYDSWGQGTQVTVSS | high polyreactivity |
| QVQLVESGGGLVQAGGSLRLSCAASGRTLGYNAMGWYSQAPGKEMDLVAAISYGGGGTYYADSVKGRCTISRDNAKNTVYLQMNSLKPEDTAVYYCAADYWYGAGLPHGTEFDYWGQGTQVTVSS | low polyreactivity |
| QVQLVESGGGLVQAGGSLRLSCAASGRTLGYYAMGWYRQAPGKERELVAAISGSGGITYYADSVKGRFTISRDNAKNTVYLQMNSLKPEDTAVYYCNVDPTAKWFNYDSWGQGTQVTVSS | low polyreactivity |
| QVQLVESGGGLVQAGGSLRLSCAASGRTLIVNTMGWYRQAPGKEREFVAAIFSGASTYYADSVKGRFTISRDNAMNTDYLQINSVKPEDTAVYYCAAAVFRWSRYDYWGQGTQVTVSS | low polyreactivity |
| QVQLVESGGGLVQAGGSLRLSCAASGRTLKWYAMGWYRQAPGKERELVAAISWSGGSTYYADSVKGRFTISRDNAKNTVYLQMNSLKPEDTAVYYCAVAVTSYSSKKLYYWGQGTQVTVSS | low polyreactivity |
| QVQLVESGGGLVQAGGSLRLSCAASGRTLLLNTMGWYRQAPGKERELVAAISWRDGSTYYADSVKGRFTISRDNAKNTVYLQMNSLKPEDTAVYYCNARLSGRSPYDLRFDYWGQGTQVTVSS | low polyreactivity |
| QVQLVESGGGLVQAGGSLRLSCAASGRTLLPNAMGWYRQAPGKERELVADISTSDGSTRYADSVKGRFTISRDNAKNTVYLQMNSLKPEDTAVYYCAAGSEYYSSGGVRFSFYYWGQGTQVTVSS | low polyreactivity |
| QVQLVESGGGLVQAGGSLRLSCAASGRTLLYNAMGWYRQAPGKERELVAAISYRGGSTYYADSVKGRFTISRDNAKNTVYLQMNSLKPEDTAVYYCAKVTYPYIRWYYPGYDYWGQGTQVTVSS | high polyreactivity |

| Sequence | polyreactivity (PSR sort gate) |
| --- | --- |
| QVQLVESGGGLVQAGGSLRLSCAASGRTLNAYAMGWYRQAPGKERELVAAITGDDGSTYYADSVKGRFTISRDNAKNTVYLQMNTLKPEDTAVYYCAAVTFSYDGYDYWGQGTQVTVSS | low polyreactivity |
| QVQLVESGGGLVQAGGSLRLSCAASGRTLNDYTMGWYRQAPGKERELVAAISSSGVRTYYADSVKGRFTISRDNAKNTVYLQMNSLKPEDTAVYYAKRAGYDRRWNYDYWGQGTQVTVSS | high polyreactivity |
| QVQLVESGGGLVQAGGSLRLSCAASGRTLNYNAMGWYRQAPGKERELVAAITSSGRTYYADSVKGRFTISRDNAKNTVFLQMNSLKPEDTAVYYCAASPYGRSILVRYGYWGQGTQVTVSS | high polyreactivity |
| QVQLVESGGGLVQAGGSLRLSCAASGRTLPAYAMGWYRQAPGKERELVAAISWGGGSTYYADSVKGRFTISRDNAKNTVYLQMNSLKPEDTAVYYCAVAGYWFAVAEYDYWGQGTQVTVSS | low polyreactivity |
| QVQLVESGGGLVQAGGSLRLSCAASGRTLPKYVMGCYRQAPGKERELVDAISSSGDSTYYADSVKGRFTISRDNAKNTVYLQMNSLKPEDTAVYYCAKYDRNTYGYWGQGTQVTVSS | low polyreactivity |
| QVQLVESGGGLVQAGGSLRLSCAASGRTLPPNDMGWYRQAPGKERELVAAITRSGGRTYYADSVKGRFTISRDNAKNTVYLQMNSLKPEDTAVYYCATYNPPYSDYSRYNYWGQGTQVTVSS | high polyreactivity |
| QVQLVESGGGLVQAGGSLRLSCAASGRTLPRYAMGGYRQAPGKERELVARIRYRGVSTYYADSVKGRFTISRDNAKTSVYLQMNSLKPEDTAVYYCAARASRAGLSGYWGQGTQVTVSS | high polyreactivity |
| QVQLVESGGGLVQAGGSLRLSCAASGRTLPSYAMGWYRQAPGKERELVAAITGSGGRTYYADSVKGRFTISRDNAKNTVYLQMNSLKPEDTAVYYCAARQDDYGKINYYWGQGTQVTVSS | high polyreactivity |
| QVQLVESGGGLVQAGGSLRLSCAASGRTLQAYAMGWYRQAPGKERELVAAINSSGGTTYYADSVKGRFTISRDNAKNTVYLQMNSLKPEDTAVYYCAATYWYHGRYYWYAYDYWGQGTQVTVSS | high polyreactivity |
| QVQLVESGGGLVQAGGSLRLSCAASGRTLRHYAMGWYRQAPGKERELVAAISSTGSSTYYADSVKGRFTISRDNAKNTVYLQMNCLKPEDTAVYYCNAGKKYVDYGVLSSRYYWGQGTQVTVSS | low polyreactivity |
| QVQLVESGGGLVQAGGSLRLSCAASGRTLRHYAMGWYRQAPGKERELVAAISSTGSSTYYADSVKGRFTISRDNAKNTVYLQMNSLKPEDTAVYYCAADKYTWDAGGVDYWGQGTQVTVSS | low polyreactivity |
| QVQLVESGGGLVQAGGSLRLSCAASGRTLRKYAMGWYRQAPGKERELVAAITTSGGSTYYADSVKGRFTISRDNAKNTVYLQMNSLKPDDTAVYYCNAARYYAYIGDYWGQGTQVTVSS | high polyreactivity |
| QVQLVESGGGLVQAGGSLRLSCAASGRTLRQYAMGWYRQAPGKERELVAAISRGGSTTYADSVKGRFTISRDNAKNTVYIQMNSLKPEDTAVYYCAAVSSKGNRHEYDYWGQGTQVTVSS | low polyreactivity |
| QVQLVESGGGLVQAGGSLRLSCAASGRTLRRNTMGWYRQAPGKERELVAAISWSGGSTYYADSVKGRFTISRDNPKNTVYLQMNSLKPEDTAVYYCAKVPRIGSYEMGYWGQGTQVTVSS | high polyreactivity |
| QVQLVESGGGLVQAGGSLRLSCAASGRTLRRYAMGWYRQAPGKERELVAGISRNGGSTYYADSVKGRFTISRDNAKNTVYLQMNSLKPDDTAVYYCNKVAYPYSILRYGYWGLGTQVTVSS | high polyreactivity |
| QVQLVESGGGLVQAGGSLRLSCAASGRTLRSNAMGWYRQAPGKERELVAAISSNGGSTYYADSVKGRFTISRDNAKNTVYLQMNSLKPEDTAVYYCAALSYYYSDRMDYWGQGTQVTVSS | low polyreactivity |
| QVQLVESGGGLVQAGGSLRLSCAASGRTLRYYAMGWYRQAPGKERELVAAITSSDRTYYADSVKGRFTISRDNAKNTVYLQMNSLKPEVTAVYYCAAYRATQFGYYYWGQGTQVTVSS | high polyreactivity |
| QVQLVESGGGLVQAGGSLRLSCAASGRTLRYYAMGWYRQAPGKERELVASISIGGSTFYADSVKGRFTISRDNAKNTVYLQMNSLKPEDTAVYYCAAENFWQTKEYDYWGQGTQVTVSS | low polyreactivity |
| QVQLVESGGGLVQAGGSLRLSCAASGRTLSGYAMGWYRQAPGKERELVAVITSGGSTYYADSVKGRFTISRDNAKNTVYLQMNSVKPEDTAVYYCSARRGRRLQDSQYWGQGTQVTVSS | high polyreactivity |
| QVQLVESGGGLVQAGGSLRLSCAASGRTLSHYAMGWYRQAPGKERELVAAITRSGGSTYYADSVKGRFTISRDNAKNTVYLQMNSLKPEDTAVYYCNKTLYTTYDYWGQGTQVTVSS | low polyreactivity |
| QVQLVESGGGLVQAGGSLRLSCAASGRTLSYYAMGWYRQAPGKHRELVAAITYRAGRTYYADSVKGRFTISRDNAKYTVYLQLNSLKPEVTAVYYCYAVKSTGYGYWGQGTQVTVSS | high polyreactivity |
